This is an account of results in patent US20260242497A1.

Test [1] addresses human FcRn (human) (UniProt P55899). Description: SPR, Biacore 8K, CM5 chip, antibody immobilised, human FcRn as analyte, pH 6.0.
The target is the same in test [2]. Description: SPR, Biacore 8K, CM5 chip, antibody immobilised, human FcRn as analyte, pH 6.0; average of multiple experiments. A general note: Surface plasmon resonance follows binding to a sensor surface in real time, without labels.

Sequence of human FcRn (human) (P55899 24-297 limits assumed, chain 1 of 2): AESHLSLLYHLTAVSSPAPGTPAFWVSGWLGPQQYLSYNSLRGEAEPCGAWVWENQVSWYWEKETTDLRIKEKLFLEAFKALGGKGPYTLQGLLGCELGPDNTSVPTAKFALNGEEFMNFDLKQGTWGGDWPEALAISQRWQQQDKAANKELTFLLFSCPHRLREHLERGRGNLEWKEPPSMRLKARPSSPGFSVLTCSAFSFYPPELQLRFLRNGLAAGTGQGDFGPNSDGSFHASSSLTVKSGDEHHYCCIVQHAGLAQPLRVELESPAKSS
Sequence of human FcRn (human) (beta, as listed by the source limits assumed, chain 2 of 2): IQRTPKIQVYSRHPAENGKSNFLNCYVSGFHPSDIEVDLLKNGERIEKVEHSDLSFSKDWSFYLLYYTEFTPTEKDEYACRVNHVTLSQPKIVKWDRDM

The term Kd denotes the free concentration of one partner at which half of the binding sites on the other are occupied at equilibrium, for simple one-to-one binding. A low value points to tighter binding. In the test with human FcRn (human) [1], CALY-002 (Calypso/Novartis) (antibody) registered a Fold Increase (FI) relative to Rituximab of 1.1 fold and a Kd of 1950 nM. For APG-777 (Apogee) (antibody) the same measures were 10.5 fold and 202 nM. On to Rituximab (antibody), for which the Kd with human FcRn (human) [2] came to 2130 nM. With AVTX-009 (Avalo) (antibody), in the test with human FcRn (human) [1], the Kd was 2190 nM. This counts as single-digit micromolar.
